Experimental findings from US20220064322A1 (JACOBIO PHARMACEUTICALS, published 2022) are described below.

Read-outs that look alike come from different tables or passages of the source.

Assay [1] deals with T1, cynomolgus CD73 on the cell surface (293T/17-cynoCD73 cells) (cynomolgus (Macaca fascicularis), UniProt P21589 27-547 (human entry)).
T1 construct: it is an ecto-domain with a His tag
T1 chain: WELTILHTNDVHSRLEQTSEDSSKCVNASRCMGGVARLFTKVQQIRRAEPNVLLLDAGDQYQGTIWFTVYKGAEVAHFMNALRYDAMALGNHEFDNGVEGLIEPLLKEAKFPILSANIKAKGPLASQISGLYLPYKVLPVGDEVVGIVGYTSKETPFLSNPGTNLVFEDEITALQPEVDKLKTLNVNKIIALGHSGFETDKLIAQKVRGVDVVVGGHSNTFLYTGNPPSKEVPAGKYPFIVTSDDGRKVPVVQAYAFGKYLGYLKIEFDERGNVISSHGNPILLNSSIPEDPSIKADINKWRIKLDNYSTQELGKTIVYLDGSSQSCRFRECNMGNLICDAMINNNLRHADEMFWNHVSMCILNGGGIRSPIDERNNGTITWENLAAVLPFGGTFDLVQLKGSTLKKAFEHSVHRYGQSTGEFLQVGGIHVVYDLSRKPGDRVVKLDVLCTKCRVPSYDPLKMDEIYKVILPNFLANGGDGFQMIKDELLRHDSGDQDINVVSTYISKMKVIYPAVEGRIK
The experiment in a line: flow cytometry on 293T/17-Cyno CD73 cells. As for the experimental part:
(§1) 2×10⁶ cells resuspended in PBS buffer were distributed into 96-well plates and incubated with gradient diluted humanized antibodies for 1 h at refrigerator 4° C. or on ice, then the cells was centrifuged for 3 min 1500 rpm at 4° C. and washed three times by PBS, and diluted APC-labeled goat anti-human polyclonal antibody (Biolegend) were incubated for 30 min at refrigerator 4° C. Finally, the cells were washed three times with PBS as described above and analyzed on MACSQuant flow cytometer. GraphPad Prism software was used to generate data graphs and statistical affinity data.
(§2) The samples to be tested were incubated for 1 h at 4° C. after gradient dilution. After washing, 100 μL of APC-labeled secondary antibody was added to each well and incubated for 30 min. After washing, detecting on machine and the fluorescence value was read. GraphPad Prism software was used to generate data graphs and statistical affinity data.

Assay [2] addresses T1, cynomolgus CD73 on the cell surface …. The experiment in a line: flow cytometry on 293T/17 cells expressing cynoCD73, APC-labelled goat anti-human antibody, MFI. The protocol:
as §1, §2

Assay [3] shares this target. The experiment in a line: cell-based or functional assay.
Assay [4] has as its target T2, human CD73 ecto-domain recombinant protein (huCD73) (human, UniProt P21589 27-547).
T2 construct: also called soluble huCD73; soluble recombinant CD73
T2 sequence: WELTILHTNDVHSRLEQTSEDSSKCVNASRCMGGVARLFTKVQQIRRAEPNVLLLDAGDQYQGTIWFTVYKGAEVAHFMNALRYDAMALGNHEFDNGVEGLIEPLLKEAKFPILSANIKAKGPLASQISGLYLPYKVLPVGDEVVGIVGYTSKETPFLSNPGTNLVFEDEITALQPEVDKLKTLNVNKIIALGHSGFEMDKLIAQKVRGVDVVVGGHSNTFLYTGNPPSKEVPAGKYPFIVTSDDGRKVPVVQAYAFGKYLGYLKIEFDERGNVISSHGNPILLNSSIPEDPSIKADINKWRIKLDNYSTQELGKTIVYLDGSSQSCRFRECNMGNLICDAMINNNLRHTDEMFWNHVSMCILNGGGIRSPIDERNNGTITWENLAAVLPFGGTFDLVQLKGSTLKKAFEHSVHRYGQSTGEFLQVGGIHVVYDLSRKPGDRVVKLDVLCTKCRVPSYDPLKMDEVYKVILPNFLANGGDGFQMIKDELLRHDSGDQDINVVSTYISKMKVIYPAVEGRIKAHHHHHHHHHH
The experiment in a line: indirect ELISA, plate coated with 1 ug/ml huCD73 recombinant protein, HRP-labelled secondary antibody, RFU. As for the experimental part:
(§3) Incubated with gradient diluted 100 μL/well of antibodies for 1 h at room temperature. After the plates were washed 3 times with 200 ul/well of PBST, 100 ul of diluted HRP-labeled secondary antibody at a ratio of 1:5000 was added to each well, and the plates were incubated for 1 hour at room temperature. The plates were washed 3 times with 200 ul/well of PBST, 100 ul of TMB was added to each well and reacted for 5 minutes at room temperature in the dark. […] read the OD value. The affinity of humanized antibodies and parent antibodies were similar to the antigen (table 9).

In assay [5] the target is T1, cynomolgus CD73 on the cell surface …. The experiment in a line: flow cytometry on 293T/17-Cyno CD73 cells, curve fit. The protocol:
as §1, §2

Assay [6] concerns the target T2, human CD73 ecto-domain recombinant …. The experiment in a line: indirect ELISA, coated huCD73 recombinant protein. The protocol:
as §3

Assay [7] has the same target. Nature of the assay: indirect ELISA, coated huCD73 recombinant protein, curve fit. As for the experimental part:
as §3

The target is the same in assay [8]. Nature of the assay: indirect ELISA, coated soluble huCD73, curve fit. As for the experimental part: (§4) The indirect ELISA method was applied to evaluate the binding ability of each positive clone to soluble huCD73 protein. Soluble huCD73 was coated, and gradient diluted samples were incubated, then HPR-labeled secondary antibody was added, finally TMB was added to develop the color, and OD450 was read after termination.
(§5) 1 ug/ml of recombinant CD73 protein was coated on ELISA plates (Coning), incubate overnight at 4° C. The next day, wash 5 times in PBS and blocked with 200 ul/well 2% skimmed milk, a certain dose range of CD73 antibodies were incubated for 1 h at room temperature. Wash 5 times with PBST washing buffer (PBS, 0.05% Tween 20), add HRP-conjugated goat anti-mouse IgG (H+L) (Promega) and incubate at room temperature for 1 h to detect bound anti-CD73 antibodies; wash the plate 5 times again and add TMB (Life Technologies) for color development for 5 to 10 min; finally the reaction was stopped by adding 1N HCl, and the OD value was measured at 450 nm. GraphPad Prism software was used to generate data graphs and statistical affinity data.

For assay [9] the target is unchanged. The experiment in a line: indirect ELISA, coated soluble huCD73. As for the experimental part:
as §4, §5

Assay [10] shares this target. Nature of the assay: indirect ELISA, coated soluble huCD73, HRP-labelled secondary antibody, OD450. As for the experimental part: as §4, §5
Assay [11] has as its target T1, cynomolgus CD73 on the cell surface …. The experiment in a line: cell-based or functional assay.
Assay [12] has as its target T2, human CD73 ecto-domain recombinant …. Nature of the assay: cell-based or functional assay.

B1: JB24H2L1 (antibody, human IgG1, kappa, V domains shown)
VH: QVQLVQSGAEVKKPGASVKMSCKASGYTFTDYNMHWVRQSPGKSLEWIGYIKPHNAGTTYNPKFEGRATLTVDTSASTAYMELSSLRSEDTAVYYCVRSDFLYWYFDVWGQGTTVTVSS
VL: DIQMTQSPSSLSASVGDRVTITCTASSSVSSSYLHWYQQKPGKAPKLLIYSTSNLASGVPSRFSGSGSGTDFTLTISSLQPEDFATYYCHQYHRSPLTFGAGTKLEIKR
notes: Humanized antibody of JB24Chi, human IgG1 / kappa
Turning to B1, the EC50 turned out to be 1.89 nM in assay [1] and 0.0248 nM in assay [6]. Further, the “EC50 (read off the curve)” value in assay [2] was approximately 2 nM; in assay [4] it was approximately 0.2 µg/mL. Also, in assay [3], the “IC50, blockade of 5'exonuclease activity on 293T/17-Cyno CD73 cells” value (from here on “IC50, blockade of 5'exonuclease activity”) came out at 0.079 nM. Moreover, the values for the Bottom in assay [5] and in [7] were 1.4 fluorescence and 191 OD value, respectively. Moreover, the figures for the Top in [5] and in assay [7] were 36.5 fluorescence and 6290 OD value, respectively.

B2: JB94H1L3 (antibody, human IgG1, kappa)
heavy: not shown
light: DIQMTQSPSSLSASVGDRVTITCKASQDINTYLSWFQQKPGKSPKSLIYRSNILVDGVPSRFSGSGSGQDYTLTISSLQPEDFAIYYCLQYDDFPYTFGQGTKLEIKRTVAAPSVFIFPPSDEQLKSGTASVVCLLNNFYPREAKVQWKVDNALQSGNSQESVTEQDSKDSTYSLSSTLTLSKADYEKHKVYACEVTHQGLSSPVTKSFNRGEC
notes: Humanized antibody of the 94 clone, human IgG1 / kappa
In the case of B2, the EC50 was found to be 5.42 nM in assay [1] and 0.0289 nM in [6]. The results for the “EC50 (read off the curve)” value in assay [2] and in assay [4] were approximately 5 nM and approximately 0.03 µg/mL, respectively. In [3], the “IC50, blockade of 5'exonuclease activity” value came out at 0.017 nM. The Bottom in assay [5] was 1.51 fluorescence; in assay [7], 48.7 OD value. For the same molecule, the results for the Top in assay [5] and in [7] were 78.7 fluorescence and 8290 OD value, respectively.

B3: JB24Chi (antibody, human IgG1, kappa, V domains shown)
VH: QVQLQQSGLELVKPGASVKMSCKASGYTFTDYNMHWVKQSHGKSLEWIGYIKPHNGGTTYNPKFEGKATLTVNKSSSTAYMELRSLTSEDSAVYYCVRCDFLYWYFDVWGTGTTVTVSS
VL: DIVMTQSPAIMSASLGERVTMTCTASSSVSSSYLHWYQQKPGSSPKLWIYSTSNLASGVPGRFSGSGSGTSYSLTISSMEAEDAATYYCHQYHRSPLTFGAGTKLEMKR
notes: Phage antibody, chimeric human IgG1 / human kappa full chains
On to B3, for which the figures for the EC50 in assay [1], in assay [9] and in [6] were 6.38 nM, 0.039 nM and 0.0273 nM, respectively. Further, the Bottom in assay [8] turned out to be 0.136 OD450; in assay [5], 0.709 fluorescence; in [7], 128 OD value. The figures for the Top in assay [8], in assay [5] and in [7] were 3.09 OD450, 68.5 fluorescence and 6600 OD value, respectively. For the same molecule, the “IC50, blockade of 5'exonuclease activity” value in assay [3] is 0.005 nM; in assay [11], 0.084 nM. Further, the “EC50 (read off the curve)” value in [4] is approximately 0.1 µg/mL; in assay [10], approximately 0.04 nM. Besides, in [12], the “Bottom (lower plateau of the fitted curve), blockade of soluble huCD73 enzyme activity (AMP hydrolysis, luciferase/CellTiter-Glo)” value came out at 14.7. Further, in assay [12], the “IC50, blockade of soluble huCD73 enzyme activity (AMP hydrolysis, luciferase/CellTiter-Glo)” value was found to be 0.401 nM. In [12], the “Top (upper plateau of the fitted curve), blockade of soluble huCD73 enzyme activity (AMP hydrolysis, luciferase/CellTiter-Glo)” value came out at 102.
